Measured values published in patent publication US4701455A, “Biopterin analogs” (Burroughs Wellcome Co., priority 1983, dated 1987).

Tested on: C[C@H](O)[C@H](O)[C@H]1CNc2nc(N)[nH]c(=O)c2N1
Experiment: purified protein, by the assay type
Details: other: Km of substrate (tyrosine) with the pterin as cofactor

Sequence of Tyrosine hydroxylase (Homo sapiens) (chain, as listed by the source): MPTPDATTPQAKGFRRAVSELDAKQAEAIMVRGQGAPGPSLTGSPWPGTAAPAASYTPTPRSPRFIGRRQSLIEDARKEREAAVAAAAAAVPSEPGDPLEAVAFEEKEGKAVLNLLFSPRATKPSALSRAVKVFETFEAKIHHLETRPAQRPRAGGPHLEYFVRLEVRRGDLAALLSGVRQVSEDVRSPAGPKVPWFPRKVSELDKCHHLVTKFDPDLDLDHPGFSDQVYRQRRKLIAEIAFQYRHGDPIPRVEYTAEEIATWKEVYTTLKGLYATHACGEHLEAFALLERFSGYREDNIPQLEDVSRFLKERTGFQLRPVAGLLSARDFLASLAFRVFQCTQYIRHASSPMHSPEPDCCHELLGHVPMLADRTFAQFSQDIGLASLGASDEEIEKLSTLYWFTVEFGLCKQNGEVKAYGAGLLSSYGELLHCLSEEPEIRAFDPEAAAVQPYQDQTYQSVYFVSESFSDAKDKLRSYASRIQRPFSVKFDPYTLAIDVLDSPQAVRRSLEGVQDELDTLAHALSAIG

## Tyrosine hydroxylase (Homo sapiens)
  Km: 16.0 µM
